Experimental data as given in PMC11721465 (Molecular Neurodegeneration, 2025).

T1: Human IL-34 (19–241) (human, UniProt Q6ZMJ4 19-241)
T1 construct: IL-34, human, residues 19-241; source: Expi293F cells, secreted, purified from the media using NiNTA chromatography
T1 sequence (looked up): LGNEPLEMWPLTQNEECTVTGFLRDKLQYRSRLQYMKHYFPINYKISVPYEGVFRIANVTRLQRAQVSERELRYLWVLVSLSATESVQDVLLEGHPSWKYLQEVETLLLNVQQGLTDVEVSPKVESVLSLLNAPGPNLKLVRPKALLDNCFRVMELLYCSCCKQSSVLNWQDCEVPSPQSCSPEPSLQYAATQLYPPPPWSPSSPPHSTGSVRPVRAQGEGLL


Legend:
Settings in all cases: both partners purified
Human IL-34 (19–241) = molecular target: T1, Human IL-34 (19–241); experiment: BLI; biotinylated TREM2 WT or variant immobilised on SA biosensors; IL-34 62.5–1000 nM; PBS with 0.1% BSA and 0.005% Tween-20; 1:1 kinetic fits
[1] = molecular target: T2, TDP-43, full length, soluble oligomers (human, UniProt Q13148 1-414); experiment: BLI; biotinylated TREM2 WT or variant immobilised on SA biosensors; TDP-43 oligomers 0.625–10 µM; PBS with 0.1% BSA and 0.005% Tween-20; biphasic curves, only qualitatively evaluated
T2 construct: TDP-43, human, full length; oligomers of unstated size; also called oligomeric TDP-43; TDP-43 oligomers; source: E coli, purified from insoluble inclusion bodies, solubilized in 6 M guanidine, oligomers made by 1:100 dilution
T2 sequence (Q13148 whole entry): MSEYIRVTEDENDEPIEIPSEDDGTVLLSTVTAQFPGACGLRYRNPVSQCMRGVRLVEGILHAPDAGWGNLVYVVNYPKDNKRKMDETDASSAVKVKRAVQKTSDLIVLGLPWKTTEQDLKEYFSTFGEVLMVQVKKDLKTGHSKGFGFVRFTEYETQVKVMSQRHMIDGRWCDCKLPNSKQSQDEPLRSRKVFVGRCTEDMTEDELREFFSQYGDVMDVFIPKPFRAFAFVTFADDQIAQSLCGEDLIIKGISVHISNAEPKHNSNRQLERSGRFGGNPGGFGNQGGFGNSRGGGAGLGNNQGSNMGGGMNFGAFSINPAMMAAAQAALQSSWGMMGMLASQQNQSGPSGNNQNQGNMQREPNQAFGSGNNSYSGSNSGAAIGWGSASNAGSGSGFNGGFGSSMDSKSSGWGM

[2] = molecular target: T3, oligomeric amyloid beta 42 (UniProt P05067 672-713); experiment: not stated; KD of oAβ42 and TREM2 referred to Supplemental Fig. 9; method not given
T3 construct: amyloid beta 42 (Aβ42), cut product of the amyloid precursor protein; oligomers of unstated size; also called oAβ42; Aβ42 oligomers; source: bought: Anaspec; oligomers made from HFIP/DMSO-treated peptide in PBS, 37 °C, 3 h

apolipoprotein E3 = molecular target: T4, apolipoprotein E3 (UniProt P02649 19-317); experiment: BLI; biotinylated TREM2 WT or variant immobilised on streptavidin (SA) biosensors; apoE in solution (apoE4 0.012–50 µM); PBS with 0.1% BSA and 0.005% Tween-20; double-reference subtraction; steady-state analysis
T4 construct: also called apoE3
T4 sequence (P02649 19-317): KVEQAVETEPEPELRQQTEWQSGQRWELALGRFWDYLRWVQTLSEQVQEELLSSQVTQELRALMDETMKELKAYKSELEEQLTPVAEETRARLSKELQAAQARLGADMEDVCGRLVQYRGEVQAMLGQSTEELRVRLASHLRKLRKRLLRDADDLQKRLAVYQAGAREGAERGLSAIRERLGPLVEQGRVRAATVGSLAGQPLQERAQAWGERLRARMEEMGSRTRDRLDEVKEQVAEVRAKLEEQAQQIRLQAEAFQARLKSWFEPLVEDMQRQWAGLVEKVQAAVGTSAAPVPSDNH

| Binder | Kd (Human IL-34 (19–241)) [nM] | binding result [1] | Kd [2] [nM] | Kd (apolipoprotein E3) [nM] |
| --- | --- | --- | --- | --- |
| TREM2 (19–134) WT, biotinylated (domain or fragment, human, UniProt Q9NZC2 19-134, looked up, biotin on the C-terminal BirA biotinylation sequence (enzymatic, BirA), glycosylated (mammalian cells); also called TREM2 WT; source: Expi293F cells, purified, enzymatically biotinylated using BirA) HNTTVFQGVAGQSLQVSCPYDSMKHWGRRKAWCRQLGEKGPCQRVVSTHNLWLLSFLRRWNGSTAITDDTLGGTLTITLRNLQPHDAGLYQCQSLHGSEADTLRKVLVEVLADPLD | 16.5 ± 0.2 | binds | 42 |  |
| TREM2 (19–134) R47H, biotinylated (domain or fragment, human, UniProt Q9NZC2 19-134, looked up, biotin on the C-terminal BirA biotinylation sequence (enzymatic, BirA), AD risk variant that occurs in nature; source: Expi293F cells, purified, enzymatically biotinylated using BirA) HNTTVFQGVAGQSLQVSCPYDSMKHWGRHKAWCRQLGEKGPCQRVVSTHNLWLLSFLRRWNGSTAITDDTLGGTLTITLRNLQPHDAGLYQCQSLHGSEADTLRKVLVEVLADPLD | 79.8 ± 2.4 | binds |  |  |
| TREM2 (19–134) W44D/L69D/L71D, biotinylated (domain or fragment, human, UniProt Q9NZC2 19-134, looked up, biotin on the C-terminal BirA biotinylation sequence (enzymatic, BirA), source: Expi293F cells, purified, enzymatically biotinylated using BirA) HNTTVFQGVAGQSLQVSCPYDSMKHDGRRKAWCRQLGEKGPCQRVVSTHNDWDLSFLRRWNGSTAITDDTLGGTLTITLRNLQPHDAGLYQCQSLHGSEADTLRKVLVEVLADPLD | 25.8 ± 0.3 |  |  |  |
| TREM2 (19–134) R77D, biotinylated (domain or fragment, human, UniProt Q9NZC2 19-134, looked up, biotin on the C-terminal BirA biotinylation sequence (enzymatic, BirA), source: Expi293F cells, purified, enzymatically biotinylated using BirA) HNTTVFQGVAGQSLQVSCPYDSMKHWGRRKAWCRQLGEKGPCQRVVSTHNLWLLSFLRDWNGSTAITDDTLGGTLTITLRNLQPHDAGLYQCQSLHGSEADTLRKVLVEVLADPLD | 114 ± 4 |  |  |  |
| TREM2 (19–134) L69D/L71D, biotinylated (domain or fragment, human, UniProt Q9NZC2 19-134, looked up, biotin on the C-terminal BirA biotinylation sequence (enzymatic, BirA), source: Expi293F cells, purified, enzymatically biotinylated using BirA) HNTTVFQGVAGQSLQVSCPYDSMKHWGRRKAWCRQLGEKGPCQRVVSTHNDWDLSFLRRWNGSTAITDDTLGGTLTITLRNLQPHDAGLYQCQSLHGSEADTLRKVLVEVLADPLD | 20.2 ± 0.3 |  |  |  |
| TREM2 (19–134) R46D, biotinylated (domain or fragment, human, UniProt Q9NZC2 19-134, looked up, biotin on the C-terminal BirA biotinylation sequence (enzymatic, BirA), source: Expi293F cells, purified, enzymatically biotinylated using BirA) HNTTVFQGVAGQSLQVSCPYDSMKHWGDRKAWCRQLGEKGPCQRVVSTHNLWLLSFLRRWNGSTAITDDTLGGTLTITLRNLQPHDAGLYQCQSLHGSEADTLRKVLVEVLADPLD | 18 ± 0.3 |  |  |  |
| TREM2 (19–134) R122D/K123D, biotinylated (domain or fragment, human, UniProt Q9NZC2 19-134, looked up, biotin on the C-terminal BirA biotinylation sequence (enzymatic, BirA), source: Expi293F cells, purified, enzymatically biotinylated using BirA) HNTTVFQGVAGQSLQVSCPYDSMKHWGRRKAWCRQLGEKGPCQRVVSTHNLWLLSFLRRWNGSTAITDDTLGGTLTITLRNLQPHDAGLYQCQSLHGSEADTLDDVLVEVLADPLD | 18.5 ± 0.3 |  |  |  |
| TREM2 (19–134) R62H, biotinylated (domain or fragment, human, UniProt Q9NZC2 19-134, looked up, biotin on the C-terminal BirA biotinylation sequence (enzymatic, BirA), AD risk variant that occurs in nature; source: Expi293F cells, purified, enzymatically biotinylated using BirA) HNTTVFQGVAGQSLQVSCPYDSMKHWGRRKAWCRQLGEKGPCQHVVSTHNLWLLSFLRRWNGSTAITDDTLGGTLTITLRNLQPHDAGLYQCQSLHGSEADTLRKVLVEVLADPLD | 75 | binds |  |  |
| TREM2 (19–134) T96K, biotinylated (domain or fragment, human, UniProt Q9NZC2 19-134, looked up, biotin on the C-terminal BirA biotinylation sequence (enzymatic, BirA), AD risk variant that occurs in nature; source: Expi293F cells, purified, enzymatically biotinylated using BirA) HNTTVFQGVAGQSLQVSCPYDSMKHWGRRKAWCRQLGEKGPCQRVVSTHNLWLLSFLRRWNGSTAITDDTLGGTLTIKLRNLQPHDAGLYQCQSLHGSEADTLRKVLVEVLADPLD | 23.7 ± 0.4 |  |  |  |
| TREM2 (19–134) W78D, biotinylated (domain or fragment, human, UniProt Q9NZC2 19-134, looked up, biotin on the C-terminal BirA biotinylation sequence (enzymatic, BirA), source: Expi293F cells, purified, enzymatically biotinylated using BirA) HNTTVFQGVAGQSLQVSCPYDSMKHWGRRKAWCRQLGEKGPCQRVVSTHNLWLLSFLRRDNGSTAITDDTLGGTLTITLRNLQPHDAGLYQCQSLHGSEADTLRKVLVEVLADPLD | 17.2 ± 0.4 |  |  |  |
| TREM2 (19–134) T85D, biotinylated (domain or fragment, human, UniProt Q9NZC2 19-134, looked up, biotin on the C-terminal BirA biotinylation sequence (enzymatic, BirA), source: Expi293F cells, purified, enzymatically biotinylated using BirA) HNTTVFQGVAGQSLQVSCPYDSMKHWGRRKAWCRQLGEKGPCQRVVSTHNLWLLSFLRRWNGSTAIDDDTLGGTLTITLRNLQPHDAGLYQCQSLHGSEADTLRKVLVEVLADPLD | 21.5 ± 0.6 |  |  |  |
| TREM2 (19–134) L75D, biotinylated (domain or fragment, human, UniProt Q9NZC2 19-134, looked up, biotin on the C-terminal BirA biotinylation sequence (enzymatic, BirA), source: Expi293F cells, purified, enzymatically biotinylated using BirA) HNTTVFQGVAGQSLQVSCPYDSMKHWGRRKAWCRQLGEKGPCQRVVSTHNLWLLSFDRRWNGSTAITDDTLGGTLTITLRNLQPHDAGLYQCQSLHGSEADTLRKVLVEVLADPLD | 36.6 ± 0.9 |  |  |  |
| TREM2 (19–134) R122E, biotinylated (domain or fragment, human, UniProt Q9NZC2 19-134, looked up, biotin on the C-terminal BirA biotinylation sequence (enzymatic, BirA), source: Expi293F cells, purified, enzymatically biotinylated using BirA) HNTTVFQGVAGQSLQVSCPYDSMKHWGRRKAWCRQLGEKGPCQRVVSTHNLWLLSFLRRWNGSTAITDDTLGGTLTITLRNLQPHDAGLYQCQSLHGSEADTLEKVLVEVLADPLD | 29.4 ± 0.4 |  |  |  |
| TREM2 (19–134) D87N, biotinylated (domain or fragment, human, UniProt Q9NZC2 19-134, looked up, biotin on the C-terminal BirA biotinylation sequence (enzymatic, BirA), AD risk variant that occurs in nature; source: Expi293F cells, purified, enzymatically biotinylated using BirA) HNTTVFQGVAGQSLQVSCPYDSMKHWGRRKAWCRQLGEKGPCQRVVSTHNLWLLSFLRRWNGSTAITDNTLGGTLTITLRNLQPHDAGLYQCQSLHGSEADTLRKVLVEVLADPLD | 28.4 ± 0.5 | binds |  | 79 |
